Data set [1] concerns the target T1, RPA (Rfa1-Rfa2-Rfa3) (Saccharomyces cerevisiae, UniProt P22336;P26754;P26755 1-621;1-273;1-122). In words: EMSA; minimal length for stable first RPA; EMSA: 20 mM Tris-HCl pH 7.5, 150 (or 15) mM KCl, 1 mM DTT, 100 ug/mL BSA, 5 nM DNA, 30 C 10 min; curtains: 40 mM Tris-HCl pH 7.5, 150 or 15 mM NaCl, 2 mM MgCl2, 1 mM DTT, 0.2 mg/mL BSA; MST: 1x PBS-P+. The settings on record: protein: recombinant; tags: His tag (MST: His-tagged RPA, RED-tris-NTA dye); copies: 1;1;1; label: 5'-32P.

A further data set deals with RPA-MeGFP (Saccharomyces cerevisiae, UniProt P22336;P26754;P26755 1-621;1-273;1-122). In words: MST; similar to RPA; EC50 only in figure; PBS-P+; EMSA: 20 mM Tris-HCl pH 7.5, 150 (or 15) mM KCl, 1 mM DTT, 100 ug/mL BSA, 5 nM DNA, 30 C 10 min; curtains: 40 mM Tris-HCl pH 7.5, 150 or 15 mM NaCl, 2 mM MgCl2, 1 mM DTT, 0.2 mg/mL BSA; MST: 1x PBS-P+. The settings on record: protein: recombinant; tags: MeGFP (eGFP A206K)-6xHis at Rfa2 C-terminus, LG linker; copies: 1;1;1; label: 5'-32P (EMSA); unlabeled (MST). (In general: Mobility shift assays separate free from complexed probe on a gel.)
RPA-MeGFP, sequence (P22336 whole entry, chain 1 of 3): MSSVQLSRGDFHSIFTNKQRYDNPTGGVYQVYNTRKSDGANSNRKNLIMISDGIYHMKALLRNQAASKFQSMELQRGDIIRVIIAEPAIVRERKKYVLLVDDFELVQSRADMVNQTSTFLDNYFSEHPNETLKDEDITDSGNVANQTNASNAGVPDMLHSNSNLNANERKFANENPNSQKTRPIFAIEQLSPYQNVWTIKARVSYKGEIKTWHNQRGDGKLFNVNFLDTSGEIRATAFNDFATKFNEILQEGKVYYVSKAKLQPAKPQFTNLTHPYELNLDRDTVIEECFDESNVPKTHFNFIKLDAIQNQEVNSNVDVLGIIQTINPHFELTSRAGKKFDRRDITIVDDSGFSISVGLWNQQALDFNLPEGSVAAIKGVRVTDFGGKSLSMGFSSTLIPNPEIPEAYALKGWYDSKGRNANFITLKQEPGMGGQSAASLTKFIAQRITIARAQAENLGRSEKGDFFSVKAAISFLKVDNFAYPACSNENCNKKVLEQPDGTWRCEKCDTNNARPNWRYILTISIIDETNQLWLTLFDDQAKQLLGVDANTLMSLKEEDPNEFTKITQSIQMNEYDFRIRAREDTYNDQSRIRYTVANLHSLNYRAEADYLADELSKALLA
RPA-MeGFP, sequence (P26754 whole entry, chain 2 of 3): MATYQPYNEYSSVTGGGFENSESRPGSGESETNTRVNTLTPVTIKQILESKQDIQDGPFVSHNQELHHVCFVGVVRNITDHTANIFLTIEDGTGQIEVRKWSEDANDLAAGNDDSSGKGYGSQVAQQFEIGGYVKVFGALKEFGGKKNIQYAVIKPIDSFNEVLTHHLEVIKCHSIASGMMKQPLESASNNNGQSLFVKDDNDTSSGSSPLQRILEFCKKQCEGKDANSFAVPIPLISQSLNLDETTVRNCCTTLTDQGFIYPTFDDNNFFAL
RPA-MeGFP, sequence (P26755 whole entry, chain 3 of 3): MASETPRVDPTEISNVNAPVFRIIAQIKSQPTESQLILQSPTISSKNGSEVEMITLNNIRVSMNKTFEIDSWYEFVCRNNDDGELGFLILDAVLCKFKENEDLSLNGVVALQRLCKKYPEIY

Data set [2] deals with T1, RPA (Rfa1-Rfa2-Rfa3). In words: EMSA; 150 mM KCl; single shifted species; EMSA: 20 mM Tris-HCl pH 7.5, 150 (or 15) mM KCl, 1 mM DTT, 100 ug/mL BSA, 5 nM DNA, 30 C 10 min; curtains: 40 mM Tris-HCl pH 7.5, 150 or 15 mM NaCl, 2 mM MgCl2, 1 mM DTT, 0.2 mg/mL BSA; MST: 1x PBS-P+. The settings on record: protein: recombinant; tags: His tag (MST: His-tagged RPA, RED-tris-NTA dye); copies: 1;1;1; label: 5'-32P (EMSA); unlabeled (MST).

In data set [3] the target is T1, RPA (Rfa1-Rfa2-Rfa3). In words: EMSA; 150 mM KCl; single shifted species, affinity similar to dT30; EMSA: 20 mM Tris-HCl pH 7.5, 150 (or 15) mM KCl, 1 mM DTT, 100 ug/mL BSA, 5 nM DNA, 30 C 10 min; curtains: 40 mM Tris-HCl pH 7.5, 150 or 15 mM NaCl, 2 mM MgCl2, 1 mM DTT, 0.2 mg/mL BSA; MST: 1x PBS-P+. The settings on record: protein: recombinant; tags: His tag (MST: His-tagged RPA, RED-tris-NTA dye); copies: 1;1;1; label: 5'-32P.

Data set [4] addresses T1, RPA (Rfa1-Rfa2-Rfa3). In words: EMSA; minimal length for stable third RPA; EMSA: 20 mM Tris-HCl pH 7.5, 150 (or 15) mM KCl, 1 mM DTT, 100 ug/mL BSA, 5 nM DNA, 30 C 10 min; curtains: 40 mM Tris-HCl pH 7.5, 150 or 15 mM NaCl, 2 mM MgCl2, 1 mM DTT, 0.2 mg/mL BSA; MST: 1x PBS-P+. Conditions: protein: recombinant; tags: His tag (MST: His-tagged RPA, RED-tris-NTA dye); copies: 1;1;1; label: 5'-32P.

Data set [5] addresses T1, RPA (Rfa1-Rfa2-Rfa3). In words: EMSA; 150 mM KCl; second RPA binds at 50-100 nM; EMSA: 20 mM Tris-HCl pH 7.5, 150 (or 15) mM KCl, 1 mM DTT, 100 ug/mL BSA, 5 nM DNA, 30 C 10 min; curtains: 40 mM Tris-HCl pH 7.5, 150 or 15 mM NaCl, 2 mM MgCl2, 1 mM DTT, 0.2 mg/mL BSA; MST: 1x PBS-P+. The settings on record: protein: recombinant; tags: His tag (MST: His-tagged RPA, RED-tris-NTA dye); copies: 1;1;1; label: 5'-32P.

In data set [6] the target is T1, RPA (Rfa1-Rfa2-Rfa3). As to the kind of experiment: EMSA; 150 mM KCl; second RPA at 20 nM, third at 200 nM; EMSA: 20 mM Tris-HCl pH 7.5, 150 (or 15) mM KCl, 1 mM DTT, 100 ug/mL BSA, 5 nM DNA, 30 C 10 min; curtains: 40 mM Tris-HCl pH 7.5, 150 or 15 mM NaCl, 2 mM MgCl2, 1 mM DTT, 0.2 mg/mL BSA; MST: 1x PBS-P+. Conditions: protein: recombinant; tags: His tag (MST: His-tagged RPA, RED-tris-NTA dye); copies: 1;1;1; label: 5'-32P.

Data set [7] deals with T1, RPA (Rfa1-Rfa2-Rfa3). As to the kind of experiment: EMSA; 150 mM KCl; 2-stage binding; EMSA: 20 mM Tris-HCl pH 7.5, 150 (or 15) mM KCl, 1 mM DTT, 100 ug/mL BSA, 5 nM DNA, 30 C 10 min; curtains: 40 mM Tris-HCl pH 7.5, 150 or 15 mM NaCl, 2 mM MgCl2, 1 mM DTT, 0.2 mg/mL BSA; MST: 1x PBS-P+. Conditions: protein: recombinant; tags: His tag (MST: His-tagged RPA, RED-tris-NTA dye); copies: 1;1;1; label: 5'-32P.

T1 sequence (P22336 whole entry, chain 1 of 3): as the sequence (P22336 whole entry, chain 1 of 3) above
T1 sequence (P26754 whole entry, chain 2 of 3): as the sequence (P26754 whole entry, chain 2 of 3) above
T1 sequence (P26755 whole entry, chain 3 of 3): as the sequence (P26755 whole entry, chain 3 of 3) above

B1: dT(15) (ssDNA)
DNA: TTTTTTTTTTTTTTT
Regarding B1, the binding result in the data set with RPA (Rfa1-Rfa2-Rfa3) [1] is reported as “binds”.

B2: dT(30) (ssDNA)
DNA: TTTTTTTTTTTTTTTTTTTTTTTTTTTTTT
As to B2, the binding result in the data set with RPA-MeGFP and with RPA (Rfa1-Rfa2-Rfa3) [2] was “binds” throughout.

B3: dT(20) (ssDNA)
DNA: TTTTTTTTTTTTTTTTTTTT
Turning to B3, the binding result in the data set with RPA (Rfa1-Rfa2-Rfa3) [3] was “binds”.

B4: dT(54) (ssDNA)
DNA: TTTTTTTTTTTTTTTTTTTTTTTTTTTTTTTTTTTTTTTTTTTTTTTTTTTTTT
In the case of B4, the binding result with RPA (Rfa1-Rfa2-Rfa3) [4] is given as “binds”.

B5: dT(40) (ssDNA)
DNA: TTTTTTTTTTTTTTTTTTTTTTTTTTTTTTTTTTTTTTTT
For B5, in the data set with RPA (Rfa1-Rfa2-Rfa3) [5], the binding result is reported as “binds”.

B6: dT(60) (ssDNA)
DNA: TTTTTTTTTTTTTTTTTTTTTTTTTTTTTTTTTTTTTTTTTTTTTTTTTTTTTTTTTTTT
For the molecule B6, in the data set with RPA (Rfa1-Rfa2-Rfa3) [6], the binding result is listed as “binds”.

B7: dT(50) (ssDNA)
DNA: TTTTTTTTTTTTTTTTTTTTTTTTTTTTTTTTTTTTTTTTTTTTTTTTTT
With B7, the binding result with RPA (Rfa1-Rfa2-Rfa3) [7] is “binds”.
